Drawing on paper PMC5304201 (2017), this text covers Kd for 1 molecule.

The target in the experiment is Amyloid-beta 42 oligomers Abeta42 (Homo sapiens, UniProt P05067, biotinylated Abeta42 oligomers, HA-tagged NRX1beta). Kind of experiment: cell surface binding assay, Scatchard.

B1: Neurexin-1beta S4(-) (protein)
chain: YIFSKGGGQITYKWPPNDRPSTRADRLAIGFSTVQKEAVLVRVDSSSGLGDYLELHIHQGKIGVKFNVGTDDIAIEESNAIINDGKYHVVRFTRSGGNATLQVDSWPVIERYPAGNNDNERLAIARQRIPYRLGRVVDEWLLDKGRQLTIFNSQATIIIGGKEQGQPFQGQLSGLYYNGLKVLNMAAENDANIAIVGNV
With B1, binding was put at a Kd of 184 nM.
